Data taken from article doi:10.1101/2025.04.12.648492 (bioRxiv, 2025).

Target: T1, alanine:glyoxylate aminotransferase 1, wild-type (major haplotype) (Homo sapiens, major haplotype, UniProt P21549)
Assay: ELISA

T1 sequence (P21549 whole entry): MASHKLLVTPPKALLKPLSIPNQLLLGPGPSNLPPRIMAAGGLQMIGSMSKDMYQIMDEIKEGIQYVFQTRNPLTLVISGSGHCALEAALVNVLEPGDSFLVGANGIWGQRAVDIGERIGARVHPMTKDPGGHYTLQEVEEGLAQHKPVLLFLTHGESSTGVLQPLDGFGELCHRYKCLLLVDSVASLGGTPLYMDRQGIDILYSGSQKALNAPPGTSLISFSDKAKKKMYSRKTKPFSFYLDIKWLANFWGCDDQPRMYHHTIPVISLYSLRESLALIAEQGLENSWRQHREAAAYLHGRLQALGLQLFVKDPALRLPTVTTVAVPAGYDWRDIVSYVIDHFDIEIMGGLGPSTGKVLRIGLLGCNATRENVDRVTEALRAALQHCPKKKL

Binder | binding result
NB-AGT-2, HA-tagged clone from the phage display vector (VHH) VHH: QVQLVESGGGLVQAGGSLRLSCAASGRTFSSYAMGWFRQAPGKEREFVAAINWSGGSTFYADSVKGRFTISRDNAKNTVYLQMNSLKPEDTAVYYCAAARADPYYSISYYSTTHEYDYWGQGTQVTVS | binds
NB-AGT-3, HA-tagged clone from the phage display vector (VHH) VHH: QVQLVESGGGLVQAGGSLILSCAASGFTFGHYAIGWFRQAPGKEREGVSCINSNDGSTYYADSVKGRFTISSDNAKNTVYLQMNSLKPEDTAVYYCAADYPPYYCSGYGWPSDGINYWGKGTQVTVS | binds
NB-AGT-4, HA-tagged clone from the phage display vector (VHH) VHH: QVQLVESGGGLVQSGGSLRLSCVASGGTFSTWSMGWFRQAPGKEREFVAVISWSGTIADYGDSVKGRFTISRDNAKNTVYLQMNSLKPEDTAVYYCAADPVGRVLYSDVGWQYWGQGTQVTVS | binds
NB-AGT-6, HA-tagged clone from the phage display vector (VHH) VHH: QVQLVESGGGSVQTGGSLRLACVASGFTSDHYSIGWFRQAPGKEREGVSCIGMHDGSTKYAESVKGRFTISSDNDKNTVYLQMNSLKPEDTAVYYCAAGPLVLLDSDTYQSWGEGTQVTVS | binds

Target: T1, alanine:glyoxylate aminotransferase 1, …
Assay: SPR

Binder | binding result
NB-AGT-2 (VHH) VHH: QVQLVESGGGLVQAGGSLRLSCAASGRTFSSYAMGWFRQAPGKEREFVAAINWSGGSTFYADSVKGRFTISRDNAKNTVYLQMNSLKPEDTAVYYCAAARADPYYSISYYSTTHEYDYWGQGTQVTVS | binds
NB-AGT-3 (VHH) VHH: QVQLVESGGGLVQAGGSLILSCAASGFTFGHYAIGWFRQAPGKEREGVSCINSNDGSTYYADSVKGRFTISSDNAKNTVYLQMNSLKPEDTAVYYCAADYPPYYCSGYGWPSDGINYWGKGTQVTVS | binds
NB-AGT-4 (VHH) VHH: QVQLVESGGGLVQSGGSLRLSCVASGGTFSTWSMGWFRQAPGKEREFVAVISWSGTIADYGDSVKGRFTISRDNAKNTVYLQMNSLKPEDTAVYYCAADPVGRVLYSDVGWQYWGQGTQVTVS | binds
NB-AGT-6 (VHH) VHH: QVQLVESGGGSVQTGGSLRLACVASGFTSDHYSIGWFRQAPGKEREGVSCIGMHDGSTKYAESVKGRFTISSDNDKNTVYLQMNSLKPEDTAVYYCAAGPLVLLDSDTYQSWGEGTQVTVS | binds
